The values that follow come from paper PMC4004541, “PEG-Like Nanoprobes: Multimodal, Pharmacokinetically and Optically Tunable Nanomaterials” (PLoS ONE, 2014).

A short description of data set [1]: Circulating form of PN's: FPLC of sera of injected mice. The format is in vivo. Particulars: 20 nmoles IV tail vein, nude mice, FPLC at 783 nm. As for the experimental part: To see if the variable PN size could be translated into tunable pharmacokinetics, it was essential to first establish that PN’s circulated at PEG-determined, pre-injection dimensions. Mice were injected with PN’s and FPLC chromatograms of serum samples, taken at various times post injection ( Figures 2D, 2E and 2F ), compared with pre-injection PN samples. By using PN’s absorbing at 783 nm, chromatograms from the sera of injected mice reflect this PN, since there are no compounds in serum that absorb at this wavelength. […] Similarly, peaks for PN(783)6.1 ( Figure 2E ) and PN(783)4.3 ( Figure 2F ) where identical for pre-injection samples and for nanoprobes in the sera of injected mice. Thus, molecular weight of the PEG chosen determines PN dimensions in vitro and those dimensions are maintained after injection.
At the indicated time, 50 µl of blood was collected with microhematocrit capillary tube (Fisher Scientific) from the tail, and transferred to Eppendorf microcentrifuge tube with anticoagulant (EDTA) coating (Fisher Scientific). Tubes were centrifuged (5000 rpm for 5 min), and the supernatant was injected to the FPLC, a ÄKTA Purifier 10 with SuperdexTM 200 10/300GL column.
At the indicated time, 50 μl of blood was collected with microhematocrit capillary tube (Fisher Scientific) from the tail, and transferred to Eppendorf microcentrifuge tube with anticoagulant (EDTA) coating (Fisher Scientific). Tubes were centrifuged (5000 rpm for 5 min), and the supernatant was injected to the FPLC, a ÄKTA Purifier 10 with SuperdexTM 200 10/300GL column.

Data set [2] in a line: Elimination by whole animal surface fluorescence imaging. The note with it: mice, after injection, n = 6. In kind it is in vivo. On the procedure:
Surface fluorescence images for representative animals are shown and total surface fluorescence is quantified in bar graphs to the right of the image. […] The pharmacokinetics and biodistributions of these PN’s is further analyzed below.
Figure 3 Role PEG in determining elimination by surface fluorescence imaging. A) Animals were injected with unPEGylated peptide and imaged at the times indicated. Bar graph gives whole animal surface fluorescence determined as means and standard deviations, n = 6.
(§1) A Kodak FX multispectral imaging system was used (Carestream Molecular Imaging, Rochester, NY). Excitation at multiple wavelengths (620, 650, 690, 710, 720, 730, 750 and 760 nm) with the emission at 830 nm was setup for IR-783 spectrum; Excitation at multiple wavelengths (420, 440, 460, 480, 510, 520, 530, and 540 nm) with the emission at 600 nm was setup for Cy3 spectrum; Excitation at multiple wavelengths (450, 470, 510, 520, 530, 540, 550, 570, and 590 nm) with the emission at 700 nm was setup for mCherry; with manufacturer’s software to separate (unmix) the IR-783 spectrum, Cy3 spectrum, or mCherry spectrum from skin autofluorescence and chlorophyll fluorescence from food. X-ray images were taken after fluorescence images. […]
as §1, with “Whole animal surface fluorescence imaging: All animal experiments in this work were approved by the Institutional Review Committee of the Massachusetts General Hospital. […]” for “A Kodak FX multispectral imaging system was used (Carestream Molecular Imaging, Rochester, NY).”

The conditions of data set [3]: mouse, in vivo; for Alpha half-life / Beta half-life / k elim half-life / k perm half-life / k vas return half-life: iv.
Experimental: To assess the relationship between PN dimensions and transcapillary passage, the classic two compartment pharmacokinetic model ( Figure 4A ) [17] was applied to PN(783)10.0 ( Figure 4B ) and PN(783)4.3 ( Figures 4C ).
Groups of 5 nude mice (female; 25–30 g; 6–8 weeks old; nu/nu) were injected (tail vein, IV) with 10 nmole of PN(783)4.3 or PN(783)10.0. 50 µl of blood was collected from tail tip at the indicated times. The blood was processed as above, and diluted (25 µl plasma, 700 µl of PBS). Fluorescence was measured with Cary Eclipse Fluorescence Spectrophotometer, excitation at 765 nm and emission from 790 to 880 nm. The fluorescence intensity at 806 nm was plotted over time, and the data was fit to a biexponential, two phase decay curve. The fast and slow distribution half-life was given by the two phase decay fit with Graphpad Prism software.
From the two phase decay fit, a biexponential equation for blood concentration as a function of time, [drawing 8] , was obtained. By the relation of macro constants and micro constants: [drawing 9] , [drawing 10] , [drawing 11] [drawing 12] , micro constants k's can be obtained, and the half-life was calculated by [drawing 13] , as described in [17]. The curve for interstitium concentration vs. time was fit with MATLAB based on the curve of blood concentration vs. time.
PN pharmacokinetics: Groups of 5 nude mice (female; 25-30g; 6-8 weeks old; nu/nu) were injected (tail vein, IV) with 10 nmole of PN(783)4.3 or PN(783)10.0. 50 μl of blood was collected from tail tip at the indicated times. The blood was processed as above, and diluted (25 μl plasma, 700 μl of PBS). Fluorescence was measured with Cary Eclipse Fluorescence Spectrophotometer, excitation at 765 nm and emission from 790 to 880 nm. The fluorescence intensity at 806 nm was plotted over time, and the data was fit with two-phase decay curve. The fast and slow distribution half-life was given by the two-phase decay fit with Graphpad Prism software.
Two compartment model: From the two-phase decay fit, a biexponential equation for blood concentration as a function of time, [picture] , was obtained. By the relation of macro constants and micro constants, [picture] , [picture] , [picture] , micro constants k's can be obtained, and the half-life was calculated by [picture] , as described in ^5. The curve for interstitium concentration vs. time was fit with MATLAB based on the curve of blood concentration vs. time.
Serum fluorescence data from Figure 3B and Figure 3C was analyzed using the two-compartment model as described ^5. Data were first fit to biexponential equation, yielding values of Alpha, Beta (apparent decay constants) and values of A and B as shown in equations 1 and 2 below.
Data set [4] concerns mCherry expressing HT-29 tumor. As to the kind of experiment: Intravital two photon microscopy of mCherry expressing HT-29 tumor in dorsal skinfold chamber. The format is in vivo, nude mice. The note with it: 10 nmoles IV. From the text: A feature of PN design is that the fluorochrome can be selected to optimize optical properties for different applications. To image the vascular pharmacokinetic phase with two photon microscopy, PN(497)10.0 was used because its fluorescein is readily excited in the two photon mode. […] To further examine the vascular and interstitial phases, a dorsal skinfold chamber was used for the intravital, two photon microscopy of a mCherry expressing HT-29 tumor ( Figure 5B ).
Dorsal skinfold chamber (DSFC) tumors were grown in female nude mice (nu/nu; 25–30 g; 6–8 weeks old) with modifications from previously published techniques, [35]. 10^6 mCherry-HT-29 tumor cells in matrixgel (BD) were subcutaneously injected in the back of mice ∼1.5 cm left of the dorsal midline approximately halfway from the neck to the tail base. […] On days 2, 3, and 4 days after tumor DSFC implantation, when tumors were typically 3 mm in diameter, image stacks of tumor tissue were recorded under general anesthesia with Ketamine and Xylazine. […]
Multiphoton excitation was obtained through DeepSee and MaiTai Ti:sapphire lasers (Newport/Spectra-Physics) tuned to 920 and 1000 nm to excite all fluorescent probes used. […] Emitted fluorescence was detected through 460/50, 525/50, 595/50, 660/40 band-pass filters and non-descanned detectors to generate four-color images. […]

A further data set concerns HT-29 tumor. As to the kind of experiment: SPECT/CT and surface fluorescence imaging of the EPR effect of the HT-29 tumor. Particulars: 48 h post-injection, mice bearing HT-29 tumors. In kind it is in vivo, nude mice.

“(DOTA)Lys(PEG 5 kDa)-Cys(IR-783) [PN(783)4.3]”: the “Circulating size: FPLC peaks of serum samples after injection versus pre-injection sample” value in data set [1] is “identical”. Moreover, the “Elimination seen by whole animal surface fluorescence” value in data set [2] was “bladder accumulation (arrow) at only 20 minutes post injection”. In addition, in data set [3], the “k perm expressed as a half-life” value was 0.395 h, the Alpha half-life is listed as 0.13 h, the Beta half-life was determined as 1.64 h and the k elim half-life was found to be 1.01 h. In data set [3], the k perm half-life is recorded as 0.40 h and the “k vas return half-life” value was 0.20 h.

In the case of “(DOTA)Lys(PEG 30 kDa)-Cys(Fl) [PN(497)10.0, PEG-like Nanoprobe: 30 kDa PEG, fluorescein, DOTA peptide]”, in data set [4] (20 h post-injection), the “Localisation by intravital microscopy, interstitial phase” value is recorded as “seen in the interstitium at the tumor periphery”. Moreover, the “Localisation by intravital microscopy, vascular phase” value in data set [4] (ten minutes post-injection) is “confined to the vasculature”.

For “(DOTA)Lys(PEG 30 kDa)-Cys(IR-783) [PN(783)10.0]”, in data set [1], the “Circulating size: FPLC peaks of serum samples after injection versus pre-injection sample” value is given as “circulates at its pre-injection size”. The “Elimination seen by whole animal surface fluorescence” value in data set [2] was “excellent elimination at 48 h”. Also, the “Distribution by SPECT and surface fluorescence” value with HT-29 tumor is listed as “seen only in the tumor”. In data set [3], this substance showed an Alpha half-life of 0.51 h, a Beta half-life of 7.0 h, a k elim half-life of 4.2 h and a k perm half-life of 1.02 h. Besides, in data set [3], the “k vas return half-life” value came out at 1.23 h.
